Assay results published in the supplement of paper PMC9112550, “Optimization of the antimicrobial peptide Bac7 by deep mutational scanning” (BMC Biology, 2022).

System: Escherichia coli TOP10
Assay: shrunken log2 fold change of peptide-encoding DNA abundance (4.5 h post-induction vs induction); higher = less antimicrobial activity (less host growth inhibition)
Details: time post-induction: 4.5 h; library: site-saturation at positions 5, 18, 19, 20
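Also: peptides expressed intracellularly from a pBAD plasmid library in pooled LB shake-flask culture, induced with 0.3% L-arabinose, DNA abundance read by NGS, three biological replicates, DESeq2 with apeglm shrinkage.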

Row | Sequence | shrunken log2 fold change
1 | RRIRWRPPRLPRPRPRPIDPPRP | -0.193
2 | RRIRWRPPRLPRPRPRPIDWPRP | 0.45
3 | RRIRWRPPRLPRPRPRPIGQPRP | 0.00299
4 | RRIRWRPPRLPRPRPRPIGSPRP | -0.0153
5 | RRIRWRPPRLPRPRPRPIGWPRP | 0.534
6 | RRIRWRPPRLPRPRPRPIIYPRP | -0.327
7 | RRIRWRPPRLPRPRPRPIKCPRP | -0.0271
8 | RRIRWRPPRLPRPRPRPIKIPRP | -0.0625
9 | RRIRWRPPRLPRPRPRPILLPRP | -0.0849
10 | RRIRWRPPRLPRPRPRPILVPRP | 0.0752
11 | RRIRWRPPRLPRPRPRPILWPRP | 0.117
12 | RRIRWRPPRLPRPRPRPIMAPRP | 0.14
13 | RRIRWRPPRLPRPRPRPIMQPRP | 0.0828
14 | RRIRWRPPRLPRPRPRPIPNPRP | -0.262
15 | RRIRWRPPRLPRPRPRPISPPRP | -0.887
16 | RRIRWRPPRLPRPRPRPISQPRP | -0.392
17 | RRIRWRPPRLPRPRPRPITHPRP | -0.126
18 | RRIRWRPPRLPRPRPRPITWPRP | 0.0636
19 | RRIRWRPPRLPRPRPRPIVNPRP | -0.0307
20 | RRIRWRPPRLPRPRPRPIWIPRP | -0.186
21 | RRIRWRPPRLPRPRPRPIWPPRP | 0.684
22 | RRIRWRPPRLPRPRPRPIYHPRP | -0.305
23 | RRIRWRPPRLPRPRPRPIYMPRP | -0.118
24 | RRIRWRPPRLPRPRPRPKATPRP | 0.264
25 | RRIRWRPPRLPRPRPRPKAWPRP | 0.743

Row | Sequence | shrunken log2 fold change
26 | RRIRWRPPRLPRPRPRPKCFPRP | -0.076
27 | RRIRWRPPRLPRPRPRPKDLPRP | -0.0295
28 | RRIRWRPPRLPRPRPRPKDTPRP | -0.145
29 | RRIRWRPPRLPRPRPRPKDVPRP | -0.0454
30 | RRIRWRPPRLPRPRPRPKDWPRP | 0.246
31 | RRIRWRPPRLPRPRPRPKECPRP | 0.236
32 | RRIRWRPPRLPRPRPRPKFFPRP | 0.00459
33 | RRIRWRPPRLPRPRPRPKFIPRP | -0.17
34 | RRIRWRPPRLPRPRPRPKFKPRP | -0.00802
35 | RRIRWRPPRLPRPRPRPKHLPRP | 0.0564
36 | RRIRWRPPRLPRPRPRPKIMPRP | -0.198
37 | RRIRWRPPRLPRPRPRPKKEPRP | -0.224
38 | RRIRWRPPRLPRPRPRPKKNPRP | 0.341
39 | RRIRWRPPRLPRPRPRPKLHPRP | 0.0953
40 | RRIRWRPPRLPRPRPRPKLIPRP | -0.211
41 | RRIRWRPPRLPRPRPRPKMCPRP | -0.0087
42 | RRIRWRPPRLPRPRPRPKMIPRP | -0.22
43 | RRIRWRPPRLPRPRPRPKMTPRP | 0.175
44 | RRIRWRPPRLPRPRPRPKMWPRP | 0.737
45 | RRIRWRPPRLPRPRPRPKMYPRP | -0.13
46 | RRIRWRPPRLPRPRPRPKPVPRP | 0.006
47 | RRIRWRPPRLPRPRPRPKRTPRP | 0.668
48 | RRIRWRPPRLPRPRPRPKVAPRP | 1.16
49 | RRIRWRPPRLPRPRPRPKWGPRP | 0.463
50 | RRIRWRPPRLPRPRPRPKWVPRP | -0.00843

Row | Sequence | shrunken log2 fold change
51 | RRIRWRPPRLPRPRPRPKWYPRP | -0.235
52 | RRIRWRPPRLPRPRPRPLAFPRP | 0.153
53 | RRIRWRPPRLPRPRPRPLAGPRP | 0.493
54 | RRIRWRPPRLPRPRPRPLAVPRP | 0.541
55 | RRIRWRPPRLPRPRPRPLCDPRP | -0.0525
56 | RRIRWRPPRLPRPRPRPLCFPRP | -0.101
57 | RRIRWRPPRLPRPRPRPLDGPRP | 0.15
58 | RRIRWRPPRLPRPRPRPLERPRP | -0.148
59 | RRIRWRPPRLPRPRPRPLFDPRP | 0.0264
60 | RRIRWRPPRLPRPRPRPLFYPRP | -0.427
61 | RRIRWRPPRLPRPRPRPLHVPRP | 0.407
62 | RRIRWRPPRLPRPRPRPLKAPRP | 0.749
63 | RRIRWRPPRLPRPRPRPLKCPRP | 0.0309
64 | RRIRWRPPRLPRPRPRPLKDPRP | -0.178
65 | RRIRWRPPRLPRPRPRPLLDPRP | 0.0164
66 | RRIRWRPPRLPRPRPRPLLQPRP | 0.2
67 | RRIRWRPPRLPRPRPRPLNAPRP | 0.438
68 | RRIRWRPPRLPRPRPRPLNDPRP | -0.281
69 | RRIRWRPPRLPRPRPRPLPAPRP | 1.25
70 | RRIRWRPPRLPRPRPRPLREPRP | 0.125
71 | RRIRWRPPRLPRPRPRPLSMPRP | -0.159
72 | RRIRWRPPRLPRPRPRPLSNPRP | -0.252
73 | RRIRWRPPRLPRPRPRPLSRPRP | 0.141
74 | RRIRWRPPRLPRPRPRPLVTPRP | 0.687
75 | RRIRWRPPRLPRPRPRPLWNPRP | 0.169

Row | Sequence | shrunken log2 fold change
76 | RRIRWRPPRLPRPRPRPLYPPRP | -0.208
77 | RRIRWRPPRLPRPRPRPLYQPRP | -0.363
78 | RRIRWRPPRLPRPRPRPMAIPRP | -0.198
79 | RRIRWRPPRLPRPRPRPMAKPRP | 0.148
80 | RRIRWRPPRLPRPRPRPMALPRP | -0.0125
81 | RRIRWRPPRLPRPRPRPMCTPRP | 0.356
82 | RRIRWRPPRLPRPRPRPMEPPRP | 0.0539
83 | RRIRWRPPRLPRPRPRPMFGPRP | -0.0457
84 | RRIRWRPPRLPRPRPRPMFVPRP | -0.51
85 | RRIRWRPPRLPRPRPRPMGIPRP | 0.0704
86 | RRIRWRPPRLPRPRPRPMIMPRP | -0.0612
87 | RRIRWRPPRLPRPRPRPMIWPRP | 0.0116
88 | RRIRWRPPRLPRPRPRPMLPPRP | -0.0127
89 | RRIRWRPPRLPRPRPRPMMIPRP | -0.0137
90 | RRIRWRPPRLPRPRPRPMPLPRP | -0.0398
91 | RRIRWRPPRLPRPRPRPMQNPRP | 0.459
92 | RRIRWRPPRLPRPRPRPMRIPRP | 0.222
93 | RRIRWRPPRLPRPRPRPMSSPRP | 0.0453
94 | RRIRWRPPRLPRPRPRPMSTPRP | -0.111
95 | RRIRWRPPRLPRPRPRPMTDPRP | 0.0543
96 | RRIRWRPPRLPRPRPRPMTMPRP | -0.385
97 | RRIRWRPPRLPRPRPRPMTVPRP | -0.0472
98 | RRIRWRPPRLPRPRPRPMWLPRP | 0.244
99 | RRIRWRPPRLPRPRPRPMYPPRP | -0.245
100 | RRIRWRPPRLPRPRPRPMYRPRP | -0.233

Row | Sequence | shrunken log2 fold change
101 | RRIRWRPPRLPRPRPRPMYYPRP | -0.32
102 | RRIRWRPPRLPRPRPRPNDIPRP | -0.565
103 | RRIRWRPPRLPRPRPRPNDYPRP | -1.02
104 | RRIRWRPPRLPRPRPRPNFFPRP | 0.0572
105 | RRIRWRPPRLPRPRPRPNGNPRP | 0.0106
106 | RRIRWRPPRLPRPRPRPNHCPRP | -0.0525
107 | RRIRWRPPRLPRPRPRPNHHPRP | -0.457
108 | RRIRWRPPRLPRPRPRPNHKPRP | -0.37
109 | RRIRWRPPRLPRPRPRPNIYPRP | -0.307
110 | RRIRWRPPRLPRPRPRPNLFPRP | 0.144
111 | RRIRWRPPRLPRPRPRPNNCPRP | 0.00476
112 | RRIRWRPPRLPRPRPRPNPHPRP | -0.0669
113 | RRIRWRPPRLPRPRPRPNPRPRP | 0.452
114 | RRIRWRPPRLPRPRPRPNPWPRP | 0.265
115 | RRIRWRPPRLPRPRPRPNRLPRP | -0.0743
116 | RRIRWRPPRLPRPRPRPNRQPRP | 0.175
117 | RRIRWRPPRLPRPRPRPNTCPRP | -0.777
118 | RRIRWRPPRLPRPRPRPPANPRP | 0.629
119 | RRIRWRPPRLPRPRPRPPCCPRP | 0.198
120 | RRIRWRPPRLPRPRPRPPCNPRP | 0.0762
121 | RRIRWRPPRLPRPRPRPPCQPRP | 0.0989
122 | RRIRWRPPRLPRPRPRPPGTPRP | 0.475
123 | RRIRWRPPRLPRPRPRPPHSPRP | 0.218
124 | RRIRWRPPRLPRPRPRPPICPRP | -0.0702
125 | RRIRWRPPRLPRPRPRPPITPRP | -0.173

Row | Sequence | shrunken log2 fold change
126 | RRIRWRPPRLPRPRPRPPKGPRP | 0.61
127 | RRIRWRPPRLPRPRPRPPKMPRP | 0.172
128 | RRIRWRPPRLPRPRPRPPKWPRP | 0.627
129 | RRIRWRPPRLPRPRPRPPLGPRP | 0.416
130 | RRIRWRPPRLPRPRPRPPLTPRP | 0.432
131 | RRIRWRPPRLPRPRPRPPQKPRP | 0.413
132 | RRIRWRPPRLPRPRPRPPRQPRP | 0.209
133 | RRIRWRPPRLPRPRPRPPRWPRP | 0.591
134 | RRIRWRPPRLPRPRPRPPSCPRP | 0.0112
135 | RRIRWRPPRLPRPRPRPPVIPRP | -0.189
136 | RRIRWRPPRLPRPRPRPPWNPRP | 0.279
137 | RRIRWRPPRLPRPRPRPPYGPRP | -0.0783
138 | RRIRWRPPRLPRPRPRPQAEPRP | 0.0113
139 | RRIRWRPPRLPRPRPRPQAMPRP | 0.179
140 | RRIRWRPPRLPRPRPRPQATPRP | 0.381
141 | RRIRWRPPRLPRPRPRPQAVPRP | 0.232
142 | RRIRWRPPRLPRPRPRPQEAPRP | -0.00482
143 | RRIRWRPPRLPRPRPRPQEQPRP | 0.0647
144 | RRIRWRPPRLPRPRPRPQFCPRP | -0.0503
145 | RRIRWRPPRLPRPRPRPQFHPRP | -0.275
146 | RRIRWRPPRLPRPRPRPQFPPRP | 0.0157
147 | RRIRWRPPRLPRPRPRPQGLPRP | 0.00602
148 | RRIRWRPPRLPRPRPRPQHTPRP | 0.0837
149 | RRIRWRPPRLPRPRPRPQIGPRP | 0.0807
150 | RRIRWRPPRLPRPRPRPQKHPRP | -0.15
